Test results taken from patent US11674959B2, “Methods for identifying and preparing pharmaceutical agents for activating Tie1 and/or Tie2 receptors” (The Johns Hopkins University, priority 2017, dated 2023).

Columns and labels:
MEC monolayers = assay: FITC Transwell permeability assay; type: cell-based, human; conditions: single agent alone; FITC-Dextran 40 kDa, three hours
Description: The integrity of these junctions is also important for the regulation of monolayer permeability by controlling the size of intercellular openings. The effect of the AXT107 on EC permeability was further investigated by the transendothelial diffusion of FITC-labeled dextran across MEC monolayers seeded onto permeable Transwell® substrates.
(§1) Human dermal microvascular endothelial cells (Lonza) were maintained at 37° C. and 5% CO2 in EBM-2MV medium (Lonza) and used between passages two through seven. Where applicable, cells were serum starved in EBM-2 medium (Lonza) with no supplements. For FITC-Dextran permeability assays phenol red-free media were used to avoid auto-fluorescence. AXT107 were manufactured at New England Peptide by […], lyophilized, and dissolved in 100% DMSO.
Transwell, twenty-four-well inserts (Corning) were coated with 7.5 μg/cm^2 FN1 for two hours at 37° C., aspirated, and then dried for thirty minutes at room temperature. Wells were then seeded with 7.5×10^4 MECs in 100 μl of EBM-2 media (without phenol red) and allowed to settle for thirty minutes at room temperature. 1 ml of EGM-2 media was then added to the bottom chamber and an additional 200 μl to the top chamber. The plate was incubated for twenty-four hours at 37° C. after which the media was aspirated and an additional 7.5×10^4 MECs were plated in each well as described above. After forty-eight hours at 37° C., the media was aspirated from both chambers and the cells were washed twice in dPBS containing Ca^2+ and Mg^2+, once with EBM-2 media (without phenol red) and serum starved in EBM-2 media applied to both chambers for two hours at 37° C. After this incubation, 100 μM AXT107 or an equivalent amount of DMSO vehicle was added and incubated for an additional ninety minutes. In the top chamber, the cells were then treated with 200 ng/ml Ang2, 100 ng/ml VEGFA, both, or PBS control and in the bottom chamber, the cells were then treated with 25 μg/ml FITC-Dextran (40 kDa MW). AXT107 was also added in both chambers to maintain a concentration of 100 μM. After three hours, 10 μl was removed from the top chamber of each well and mixed with 90 μl of water in a clear bottom, 96-well plate. Fluorescence values for each sample were calculated using a Perkin Elmer plate reader.

Tie2 = assay: Western blot of MEC lysates, Ang1/2 signaling: Tie2 phosphorylation; type: cell-based, human; conditions: ligand alone, no AXT107
Description: To investigate the effects of the integrin inhibitor AXT107 on Tie2 signaling, confluent monolayers of microvascular endothelial cells (MECs) on fibronectin-coated dishes were treated with various concentrations of AXT107 followed by exposure to the Tie2 ligands Ang1 or Ang2.
as §1
For Ang1/2 signaling investigations, cell culture dishes (10 cm diameter) were coated with 5 μg/ml fibronectin (FN1; Sigma-Aldrich, St. Louis, Mo.) for two hours at 37° C. The FN1 solution was then removed by aspiration and 5×10^6 microvascular endothelial cells (MECs; Lonza, Walkersville, Md.) were plated in EGM-2MV media (Lonza) and cultured for forty-eight hours at 37° C. The cells were then serum starved for sixteen hours in serum-free EGM-2 base media (Lonza). AXT107 (0-100 μM, as indicated) was subsequently added to each culture and incubated for seventy-five minutes at 37° C. The cultures were then treated with 1 mM sodium vanadate (New England Biolabs, Ipswich, Mass.) for fifteen minutes to enhance the phospho-Tie2 signal followed by stimulation with 200 ng/ml angiopoietin (R&D Systems, Minneapolis, Minn.) for an additional fifteen minutes. The cells were then transferred to ice, washed twice with ice cold Dulbecco's phosphate-buffered saline (dPBS) containing Ca^2+ and Mg^2+, and collected by scraping in 500 μl of 1× Blue Loading Buffer (Cell Signaling, Danvers, Mass.). Lysate samples were then sonicated, boiled, and resolved by SDS-PAGE. Specific proteins were identified by Western blot, using the following primary antibodies: Cell Signaling—phospho-Tie2 (Y992) (Cat #: 4221), Tie2 (Cat #: 7403), phospho-Stat3 (Y705) (Cat #: 4113), Stat3 (Cat #: 4904), phospho-Akt (S473) (Cat #: 4058), Akt (Cat #: 9272), phospho-p44/42 MAPK (T202/Y204) (Cat #: 4370), p44/42 MAPK (Cat #: 4695); BD Transduction Laboratories—β1 integrin (Cat #: 610467); Millipore—α5 integrin (Cat #: AB1928) and detected with HRP-conjugated goat anti-rabbit and sheep anti-mouse secondary antibodies (GE healthcare).

Row | Molecule | FITC-dextran diffusion across the monolayer, agent alone (MEC monolayers) | Tie2 phosphorylation by ligand alone (Tie2)
1 | VEGF [reference compound] | appeared to increase permeability (although non-significantly) | 
2 | Ang1: angiopoietin 1, Tie2 ligand (protein) SNQRRSPENSGRRYNRIQHGQCAYTFILPEHDGNCRESTTDQYNTNALQRDAPHVEPDFSSQKLQHLEHVMENYTQWLQKLENYIVENMKSEMAQIQQNAVQNHTATMLEIGTSLLSQTAEQTRKLTDVETQVLNQTSRLEIQLLENSLSTYKLEKQLLQQTNEILKIHEKNSLLEHKILEMEGKHKEELDTLKEEKENLQGLVTRQTYIIQELEKQLNRATTNNSVLQKQQLELMDTVHNLVNLCTKEGVLLKGGKREEEKPFRDCADVYQAGFNKSGIYTIYINNMPEPKKVFCNMDVNGGGWTVIQHREDGSLDFQRGWKEYKMGFGNPSGEYWLGNEFIFAITSQRQYMLRIELMDWEGNRAYSQYDRFHIGNEKQNYRLYLKGHTGTAGKQSSLILHGADFSTKDADNDNCMCKCALMLTGGWWFDACGPSNLNGMFYTAGQNHGKLNGIKWHYFKGPSYSLRSTTMMIRPLDF |  | induced phosphorylation of Tie2
3 | Ang2: angiopoietin 2, Tie2 ligand (protein) YNNFRKSMDSIGKKQYQVQHGSCSYTFLLPEMDNCRSSSSPYVSNAVQRDAPLEYDDSVQRLQVLENIMENNTQWLMKLENYIQDNMKKEMVEIQQNAVQNQTAVMIEIGTNLLNQTAEQTRKLTDVEAQVLNQTTRLELQLLEHSLSTNKLEKQILDQTSEINKLQDKNSFLEKKVLAMEDKHIIQLQSIKEEKDQLQVLVSKQNSIIEELEKKIVTATVNNSVLQKQQHDLMETVNNLLTMMSTSNSAKDPTVAKEEQISFRDCAEVFKSGHTTNGIYTLTFPNSTEEIKAYCDMEAGGGGWTIIQRREDGSVDFQRTWKEYKVGFGNPSGEYWLGNEFVSQLTNQQRYVLKIHLKDWEGNEAYSLYEHFYLSSEELNYRIHLKGLTGTAGKISSISQPGNDFSTKDGDNDKCICKCSQMLTGGWWFDACGPSNLNGMYYPQRQNTNKFNGIKWYYWKGSGYSLKATTMMIRPADF | influenced FITC-dextran diffusion across the monolayer | insignificant effects by itself
